Data reported in paper PMC9352680, “A comprehensive thermodynamic model for RNA binding by the Saccharomyces cerevisiae Pumilio protein PUF4”.

T1: PUF4 RNA-binding domain (Saccharomyces cerevisiae, UniProt P25339 537-888)
T1 sequence: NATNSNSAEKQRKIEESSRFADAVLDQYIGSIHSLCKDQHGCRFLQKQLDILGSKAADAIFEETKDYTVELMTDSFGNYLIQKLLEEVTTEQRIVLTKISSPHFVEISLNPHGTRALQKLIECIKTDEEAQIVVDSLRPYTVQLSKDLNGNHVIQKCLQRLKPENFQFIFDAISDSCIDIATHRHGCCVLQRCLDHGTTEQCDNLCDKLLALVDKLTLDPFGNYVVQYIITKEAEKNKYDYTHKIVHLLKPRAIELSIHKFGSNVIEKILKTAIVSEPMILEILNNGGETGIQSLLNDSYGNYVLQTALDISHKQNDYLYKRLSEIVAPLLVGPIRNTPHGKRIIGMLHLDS


What follows are binders tested against T1, PUF4 RNA-binding domain (assay: Mg; RNA-MaP; 20 mM Na-HEPES pH 7.4, 30 mM KOAc, 0.75 mM MgCl2, 0.1% Tween-20, 5% glycerol, 0.1 mg/mL BSA, 2 mM DTT; 25 C; 0.0125-409.6 nM protein). Conditions: tags: N-His6-TEV cleaved; C-SNAP kept, Cy3B-labelled; label: tethered on chip by stalled RNA polymerase.

Going from UCUCUUUGUAAAACGGUCUCUU (ssRNA) [Ic_S1_P5E.1_K5.1_C5.1_H5.1_A5.1_[T5A]_[T6A]_F5.1_[T8C]_[T9G]_[A10G]_T5.1] to UCUCUUUGUAACGGUCUCUCUU (ssRNA) [Ic_S1_P5E.1_K5.1_C5.1_H5.1_A5.1_[T5A]_[T6C]_[A7G]_F5.1_[T8G]_[A10C]_T5.1], the Kd rises from 625 nM to greater than 2300 nM.

Compared with UCUCUUUGUACCAUUUUCUCUU (ssRNA) [Ic_S1_P5E.1_K5.1_C5.1_H5.1_A5.1_[T5C]_[T6C]_F5.1_[A10T]_T5.1], UCUCUUUGUAAUUUUCUCUCUU (ssRNA) [Ic_S1_P5E.1_K5.1_C5.1_H5.1_A5.1_[T5A]_[A7T]_F5.1_[A10C]_T5.1] is 4.2-fold higher in Kd: 7.08 nM for the first, 29.8 nM for the second.

First: UCUCUUCGUGUAUAUCUCUU (ssRNA) [Ib_S1_P3E.1_K3.1_C3.1_H3.1_[T1C]_[A4G]_A3.1_F3.1_T3.1]
Second: UCUCUUUGUAAACUAAUCUCUU (ssRNA) [Ic_S1_P5E.1_K5.1_C5.1_H5.1_A5.1_[T5A]_[T6A]_[A7C]_F5.1_[T9A]_T5.1]
The Kd of the first is 8.9-fold higher: 26.7 nM for the first, 3.01 nM for the second.

First: UCUCUUUGUAUUUAAUUCUCUU (ssRNA) [Ic_S1_P5E.1_K5.1_C5.1_H5.1_A5.1_[A7T]_F5.1_[T8A]_[T9A]_[A10T]_T5.1]
Second: UCUCUUUGUAGUAUAUUCUCUU (ssRNA) [Ic_S1_P5E.1_K5.1_C5.1_H5.1_A5.1_[T5G]_F5.1_[T9A]_[A10T]_T5.1]
The Kd of the first is 5.6-fold higher: 46.2 nM for the first, 8.21 nM for the second.

Compared with UCUCUUUGUACUUCGUUCUCUU (ssRNA) [Ic_S1_P5E.1_K5.1_C5.1_H5.1_A5.1_[T5C]_[A7T]_F5.1_[T8C]_[T9G]_[A10T]_T5.1], UCUCUUUGUAUAUCAUCUCUU (ssRNA) [Ic_S1_P4E.1_K4.1_C4.1_H4.1_A4.1_F4.1_[T8C]_T4.1] is 41-fold lower in Kd: 352 nM for the first, 8.57 nM for the second. The second binds more tightly here.

First: UCUCUUUGUAAAACCGUCUCUU (ssRNA) [Ic_S1_P5E.1_K5.1_C5.1_H5.1_A5.1_[T5A]_[T6A]_F5.1_[T8C]_[T9C]_[A10G]_T5.1]
Second: UCUCUUAGCAUAUAUCUCUU (ssRNA) [Ib_S1_P3E.1_K3.1_C3.1_H3.1_[T1A]_[T3C]_A3.1_F3.1_T3.1]
The Kd of the first is lower: 1190 nM for the first, greater than 2300 nM for the second. The first binds more tightly here.

First: UCUCUUUGUAUACGGUUCUCUU (ssRNA) [Ic_S1_P5E.1_K5.1_C5.1_H5.1_A5.1_[T6A]_[A7C]_F5.1_[T8G]_[T9G]_[A10T]_T5.1]
Second: UCUCUUAGUGUAUAUCUCUU (ssRNA) [Ib_S1_P3E.1_K3.1_C3.1_H3.1_[T1A]_[A4G]_A3.1_F3.1_T3.1]
The Kd of the first is 1.7-fold higher: 90.4 nM for the first, 51.9 nM for the second.

First: UCUCUUUGUACUUCAUUCUCUU (ssRNA) [Ic_S1_P5E.1_K5.1_C5.1_H5.1_A5.1_[T5C]_[A7T]_F5.1_[T8C]_[T9A]_[A10T]_T5.1]
Second: UCUCUUUGUACCAGCUUCUCUU (ssRNA) [Ic_S1_P5E.1_K5.1_C5.1_H5.1_A5.1_[T5C]_[T6C]_F5.1_[T8G]_[T9C]_[A10T]_T5.1]
The Kd of the first is 9.8-fold lower: 75.9 nM for the first, 747 nM for the second. The first binds more tightly here.

First: UCUCUUUGUAACAGCCUCUCUU (ssRNA) [Ic_S1_P5E.1_K5.1_C5.1_H5.1_A5.1_[T5A]_[T6C]_F5.1_[T8G]_[T9C]_[A10C]_T5.1]
Second: UCUCUUUGUAUGUACUUCUCUU (ssRNA) [Ic_S1_P5E.1_K5.1_C5.1_H5.1_A5.1_[T6G]_[A7T]_F5.1_[T8A]_[T9C]_[A10T]_T5.1]
The Kd of the first is 18-fold higher: 1140 nM for the first, 64.7 nM for the second.

UCUCUUUGUAAGCUGCUCUCUU (ssRNA) [Ic_S1_P5E.1_K5.1_C5.1_H5.1_A5.1_[T5A]_[T6G]_[A7C]_F5.1_[T9G]_[A10C]_T5.1] and UCUCUUUGUAUUUGCCUCUCUU (ssRNA) [Ic_S1_P5E.1_K5.1_C5.1_H5.1_A5.1_[A7T]_F5.1_[T8G]_[T9C]_[A10C]_T5.1] are within 1.5-fold of each other in Kd: 604 nM for the first, 568 nM for the second.

Compared with UCUCUUUGUAUGGUAAUCUCUU (ssRNA) [Ic_S1_P5E.1_K5.1_C5.1_H5.1_A5.1_[T6G]_[A7G]_F5.1_[T9A]_T5.1], UCUCUUUGUAAACUGUUCUCUU (ssRNA) [Ic_S1_P5E.1_K5.1_C5.1_H5.1_A5.1_[T5A]_[T6A]_[A7C]_F5.1_[T9G]_[A10T]_T5.1] is 2.5-fold lower in Kd: 32.1 nM for the first, 12.6 nM for the second.

Going from UCUCUUUGUAUCUAUCUCUCUU (ssRNA) [Ic_S1_P5E.1_K5.1_C5.1_H5.1_A5.1_[T6C]_[A7T]_F5.1_[T8A]_[A10C]_T5.1] to UCUCUUUGUAACGACUUCUCUU (ssRNA) [Ic_S1_P5E.1_K5.1_C5.1_H5.1_A5.1_[T5A]_[T6C]_[A7G]_F5.1_[T8A]_[T9C]_[A10T]_T5.1], the Kd rises from 41.5 nM to greater than 2300 nM.

First: UCUCUUUGUAACCCAUUCUCUU (ssRNA) [Ic_S1_P5E.1_K5.1_C5.1_H5.1_A5.1_[T5A]_[T6C]_[A7C]_F5.1_[T8C]_[T9A]_[A10T]_T5.1]
Second: UCUCUUUGUAAUCUGAUCUCUU (ssRNA) [Ic_S1_P5E.1_K5.1_C5.1_H5.1_A5.1_[T5A]_[A7C]_F5.1_[T9G]_T5.1]
The Kd of the first is 8.5-fold higher: 711 nM for the first, 83.4 nM for the second.

Compared with UCUCUUUGUAAAUAACUCUCUU (ssRNA) [Ic_S1_P5E.1_K5.1_C5.1_H5.1_A5.1_[T5A]_[T6A]_[A7T]_F5.1_[T8A]_[T9A]_[A10C]_T5.1], UCUCUUUGUACGGUCGUCUCUU (ssRNA) [Ic_S1_P5E.1_K5.1_C5.1_H5.1_A5.1_[T5C]_[T6G]_[A7G]_F5.1_[T9C]_[A10G]_T5.1] is higher in Kd: 31.1 nM for the first, greater than 2300 nM for the second. The first binds more tightly here.

Compared with UCUCUUUGUAAGUAACUCUCUU (ssRNA) [Ic_S1_P5E.1_K5.1_C5.1_H5.1_A5.1_[T5A]_[T6G]_[A7T]_F5.1_[T8A]_[T9A]_[A10C]_T5.1], UCUCUUUGUACCUUGGUCUCUU (ssRNA) [Ic_S1_P5E.1_K5.1_C5.1_H5.1_A5.1_[T5C]_[T6C]_[A7T]_F5.1_[T9G]_[A10G]_T5.1] is lower in Kd: greater than 2300 nM for the first, 103 nM for the second. The second binds more tightly here.

Going from UCUCUUUGUAAUGGUAUCUCUU (ssRNA) [Ic_S1_P5E.1_K5.1_C5.1_H5.1_A5.1_[T5A]_[A7G]_F5.1_[T8G]_T5.1] to UCUCUUGGUCUAUAUCUCUU (ssRNA) [Ib_S1_P3E.1_K3.1_C3.1_H3.1_[T1G]_[A4C]_A3.1_F3.1_T3.1], the Kd rises from 45.1 nM to greater than 2300 nM. The first binds more tightly here.

Going from UCUCUUUGUAUACCCUUCUCUU (ssRNA) [Ic_S1_P5E.1_K5.1_C5.1_H5.1_A5.1_[T6A]_[A7C]_F5.1_[T8C]_[T9C]_[A10T]_T5.1] to UCUCUUUGUAAUUGCCUCUCUU (ssRNA) [Ic_S1_P5E.1_K5.1_C5.1_H5.1_A5.1_[T5A]_[A7T]_F5.1_[T8G]_[T9C]_[A10C]_T5.1], the Kd rises from 103 nM to 645 nM (6.3-fold).

First: UCUCUUUGUAUUUCGUUCUCUU (ssRNA) [Ic_S1_P5E.1_K5.1_C5.1_H5.1_A5.1_[A7T]_F5.1_[T8C]_[T9G]_[A10T]_T5.1]
Second: UCUCUUUGUAACCCAAUCUCUU (ssRNA) [Ic_S1_P5E.1_K5.1_C5.1_H5.1_A5.1_[T5A]_[T6C]_[A7C]_F5.1_[T8C]_[T9A]_T5.1]
The Kd of the first is 4.7-fold lower: 370 nM for the first, 1740 nM for the second. The first binds more tightly here.

Going from UCUCUUUGUACACCCCUCUCUU (ssRNA) [Ic_S1_P5E.1_K5.1_C5.1_H5.1_A5.1_[T5C]_[T6A]_[A7C]_F5.1_[T8C]_[T9C]_[A10C]_T5.1] to UCUCUUUGUAAGUUGUUCUCUU (ssRNA) [Ic_S1_P5E.1_K5.1_C5.1_H5.1_A5.1_[T5A]_[T6G]_[A7T]_F5.1_[T9G]_[A10T]_T5.1], the Kd rises from 113 nM to 495 nM (4.4-fold). The first binds more tightly here.

Going from UCUCUUUGUAUAAAUCUCUU (ssRNA) [Ia_S1_P3E.1_K3.1_C3.1_H3.1_A3.1_F3.1_[T7A]_T3.1] to UCUCUUUGUAAACUAUUCUCUU (ssRNA) [Ic_S1_P5E.1_K5.1_C5.1_H5.1_A5.1_[T5A]_[T6A]_[A7C]_F5.1_[T9A]_[A10T]_T5.1], the Kd falls from 50.4 nM to 2.36 nM (21-fold).

Going from UCUCUUUGUACAAUUCUCUCUU (ssRNA) [Ic_S1_P5E.1_K5.1_C5.1_H5.1_A5.1_[T5C]_[T6A]_F5.1_[A10C]_T5.1] to UCUCUUUGUAGCACUAUCUCUU (ssRNA) [Ic_S1_P5E.1_K5.1_C5.1_H5.1_A5.1_[T5G]_[T6C]_F5.1_[T8C]_T5.1], the Kd rises from 12.1 nM to 45.5 nM (3.8-fold).

Compared with UCUCUUUGUAAACUUUUCUCUU (ssRNA) [Ic_S1_P5E.1_K5.1_C5.1_H5.1_A5.1_[T5A]_[T6A]_[A7C]_F5.1_[A10T]_T5.1], UCUCUUUGUAUACUACUCUCUU (ssRNA) [Ic_S1_P5E.1_K5.1_C5.1_H5.1_A5.1_[T6A]_[A7C]_F5.1_[T9A]_[A10C]_T5.1] is 13-fold lower in Kd: 37.5 nM for the first, 2.89 nM for the second. The second binds more tightly here.

Compared with UCUCUUUGUACCAUCUUCUCUU (ssRNA) [Ic_S1_P5E.1_K5.1_C5.1_H5.1_A5.1_[T5C]_[T6C]_F5.1_[T9C]_[A10T]_T5.1], UCUCUUUGUACCAAACUCUCUU (ssRNA) [Ic_S1_P5E.1_K5.1_C5.1_H5.1_A5.1_[T5C]_[T6C]_F5.1_[T8A]_[T9A]_[A10C]_T5.1] is 2.4-fold higher in Kd: 28 nM for the first, 68.1 nM for the second. The first binds more tightly here.

Compared with UCUCUUUGUACCAGUGUCUCUU (ssRNA) [Ic_S1_P5E.1_K5.1_C5.1_H5.1_A5.1_[T5C]_[T6C]_F5.1_[T8G]_[A10G]_T5.1], UCUCUUUGUACAGCAUUCUCUU (ssRNA) [Ic_S1_P5E.1_K5.1_C5.1_H5.1_A5.1_[T5C]_[T6A]_[A7G]_F5.1_[T8C]_[T9A]_[A10T]_T5.1] is 20-fold lower in Kd: 470 nM for the first, 23.4 nM for the second. The second binds more tightly here.

First: UCUCUUUGUAUUUGCGUCUCUU (ssRNA) [Ic_S1_P5E.1_K5.1_C5.1_H5.1_A5.1_[A7T]_F5.1_[T8G]_[T9C]_[A10G]_T5.1]
Second: UCUCUUGGCAUAUAUCUCUU (ssRNA) [Ib_S1_P3E.1_K3.1_C3.1_H3.1_[T1G]_[T3C]_A3.1_F3.1_T3.1]
The Kd of the first is lower: 659 nM for the first, greater than 2300 nM for the second. The first binds more tightly here.
